# Test results reported in patent US20040259816A1.
# Molecular target: PKC δ (rat), P09215
# Experiment: cell-based or functional assay
# Chain of PKC δ (rat), P09215 (P09215 whole entry, stated change not applied): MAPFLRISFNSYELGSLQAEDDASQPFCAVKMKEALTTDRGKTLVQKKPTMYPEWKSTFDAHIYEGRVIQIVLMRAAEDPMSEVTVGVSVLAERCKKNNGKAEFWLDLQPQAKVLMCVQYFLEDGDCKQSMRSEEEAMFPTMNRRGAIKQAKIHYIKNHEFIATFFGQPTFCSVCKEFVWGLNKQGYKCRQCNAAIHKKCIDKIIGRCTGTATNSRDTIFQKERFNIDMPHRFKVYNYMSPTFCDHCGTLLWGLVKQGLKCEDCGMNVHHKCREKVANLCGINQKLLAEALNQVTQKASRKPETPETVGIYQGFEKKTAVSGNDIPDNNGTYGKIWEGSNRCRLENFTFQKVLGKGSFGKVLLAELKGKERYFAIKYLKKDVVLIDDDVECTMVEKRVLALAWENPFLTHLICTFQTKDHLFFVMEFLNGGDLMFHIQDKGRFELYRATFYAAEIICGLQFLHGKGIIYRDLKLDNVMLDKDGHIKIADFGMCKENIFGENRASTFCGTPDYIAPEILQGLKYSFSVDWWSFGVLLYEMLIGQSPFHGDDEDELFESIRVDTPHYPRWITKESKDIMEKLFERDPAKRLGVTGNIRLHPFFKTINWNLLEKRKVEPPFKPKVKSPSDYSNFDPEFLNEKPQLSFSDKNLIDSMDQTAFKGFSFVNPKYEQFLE
binder,measurement,value
SFNSYELGSLRQIKIWFQNRRMKWKK [PKC δ translocation inhibitor δV1-1 conjugated to Drosophila antennapedia peptide],"inhibition of CCK-8 induced NF-κB activation (EMSA band intensity, rat pancreatic acini, 10 µM peptide)",76%
same,"inhibition of TNF-α induced NF-κB activation (EMSA band intensity, rat pancreatic acini, 10 µM peptide)",57%
